Consider 91 sequences from the supplement of paper PMC9112550, “Optimization of the antimicrobial peptide Bac7 by deep mutational scanning” (BMC Biology, 2022).

The data set relates to Escherichia coli TOP10. In words: shrunken log2 fold change of peptide-encoding DNA abundance (4.5 h post-induction vs induction); higher = less antimicrobial activity (less host growth inhibition). Conditions: time post-induction: 4.5 h; library: site-saturation at positions 5, 18, 19, 20.
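Note: peptides expressed intracellularly from a pBAD plasmid library in pooled LB shake-flask culture, induced with 0.3% L-arabinose, DNA abundance read by NGS, three biological replicates, DESeq2 with apeglm shrinkage.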

For the sequence RRIRSRPPRLPRPRPRPHPIPRP, the “shrunken log2 fold change” value is -0.214.

Consider RRIRRRPPRLPRPRPRPQYGPRP, for which the “shrunken log2 fold change” value was -0.409.

Regarding RRIRRRPPRLPRPRPRPWLWPRP, the “shrunken log2 fold change” value was 0.0836.

As to RRIRHRPPRLPRPRPRPTSAPRP, the “shrunken log2 fold change” value was found to be 0.0939.

With RRIRQRPPRLPRPRPRPFYDPRP, the “shrunken log2 fold change” value was -0.208.

Take RRIRGRPPRLPRPRPRPWKGPRP: the “shrunken log2 fold change” value was 0.22.

With RRIRYRPPRLPRPRPRPVPTPRP, the “shrunken log2 fold change” value was -0.0167.

As to RRIRCRPPRLPRPRPRPEPPPRP, the “shrunken log2 fold change” value was 2.06.

RRIRVRPPRLPRPRPRPLFKPRP: the “shrunken log2 fold change” value is -0.262.

On to RRIRHRPPRLPRPRPRPMYWPRP, for which the “shrunken log2 fold change” value is -0.222.

Turning to RRIRLRPPRLPRPRPRPFEWPRP, the “shrunken log2 fold change” value was -0.151.

In the case of RRIRYRPPRLPRPRPRPPQKPRP, the “shrunken log2 fold change” value is -0.123.

Regarding RRIRWRPPRLPRPRPRPYLSPRP, the “shrunken log2 fold change” value is -0.242.

In the case of RRIRNRPPRLPRPRPRPHALPRP, the “shrunken log2 fold change” value turned out to be 0.0517.

Consider RRIRTRPPRLPRPRPRPPVYPRP, for which the “shrunken log2 fold change” value is -0.0771.

In the case of RRIRPRPPRLPRPRPRPCLGPRP, the “shrunken log2 fold change” value is -0.198.

As to RRIRPRPPRLPRPRPRPTGHPRP, the “shrunken log2 fold change” value amounted to 0.0828.

Consider RRIRQRPPRLPRPRPRPKVFPRP, for which the “shrunken log2 fold change” value was -0.00192.

In the case of RRIRPRPPRLPRPRPRPDSIPRP, the “shrunken log2 fold change” value is -0.598.

Consider RRIRMRPPRLPRPRPRPVGRPRP, for which the “shrunken log2 fold change” value worked out at 0.724.

Turning to RRIRHRPPRLPRPRPRPENFPRP, the “shrunken log2 fold change” value was -0.0249.

Turning to RRIRKRPPRLPRPRPRPDGAPRP, the “shrunken log2 fold change” value was 0.632.

With RRIRRRPPRLPRPRPRPLTEPRP, the “shrunken log2 fold change” value was determined as 0.793.

As to RRIRKRPPRLPRPRPRPGCAPRP, the “shrunken log2 fold change” value was 0.82.

Consider RRIRMRPPRLPRPRPRPWYNPRP, for which the “shrunken log2 fold change” value is -0.044.

As to RRIRCRPPRLPRPRPRPLIVPRP, the “shrunken log2 fold change” value was -0.596.

As for RRIRHRPPRLPRPRPRPQVPPRP, the “shrunken log2 fold change” value stood at 0.0019.

On to RRIRFRPPRLPRPRPRPRPYPRP, for which the “shrunken log2 fold change” value was -0.175.

On to RRIRFRPPRLPRPRPRPKAWPRP, for which the “shrunken log2 fold change” value is 0.0254.

With RRIRLRPPRLPRPRPRPQACPRP, the “shrunken log2 fold change” value is 0.00768.

As to RRIRLRPPRLPRPRPRPKYTPRP, the “shrunken log2 fold change” value was -0.61.

In the case of RRIRVRPPRLPRPRPRPYNDPRP, the “shrunken log2 fold change” value was -0.609.

Regarding RRIRHRPPRLPRPRPRPTIQPRP, the “shrunken log2 fold change” value was -0.169.

Turning to RRIRMRPPRLPRPRPRPTNCPRP, the “shrunken log2 fold change” value amounted to 0.0955.

Turning to RRIRWRPPRLPRPRPRPPSPPRP, the “shrunken log2 fold change” value was 0.598.

For RRIRVRPPRLPRPRPRPRVTPRP, the “shrunken log2 fold change” value was 0.274.

Turning to RRIRFRPPRLPRPRPRPHGFPRP, the “shrunken log2 fold change” value was -0.105.

Regarding RRIRYRPPRLPRPRPRPHAMPRP, the “shrunken log2 fold change” value was -0.221.

Consider RRIRHRPPRLPRPRPRPEMEPRP, for which the “shrunken log2 fold change” value was -0.108.

In the case of RRIRARPPRLPRPRPRPYWWPRP, the “shrunken log2 fold change” value is -0.195.

Turning to RRIRYRPPRLPRPRPRPMGGPRP, the “shrunken log2 fold change” value was -0.264.

RRIRNRPPRLPRPRPRPEYGPRP: the “shrunken log2 fold change” value was -0.284.

As to RRIRQRPPRLPRPRPRPFTHPRP, the “shrunken log2 fold change” value is -0.0618.

Turning to RRIRLRPPRLPRPRPRPQANPRP, the “shrunken log2 fold change” value was -0.289.

With RRIRKRPPRLPRPRPRPSFHPRP, the “shrunken log2 fold change” value is -0.219.

Turning to RRIRLRPPRLPRPRPRPCRRPRP, the “shrunken log2 fold change” value was -0.0846.

For the sequence RRIRERPPRLPRPRPRPIIEPRP, the “shrunken log2 fold change” value worked out at 0.0238.

For the sequence RRIRERPPRLPRPRPRPNPLPRP, the “shrunken log2 fold change” value was -0.0696.

For the sequence RRIRSRPPRLPRPRPRPTPWPRP, the “shrunken log2 fold change” value was determined as 0.349.

Take RRIRYRPPRLPRPRPRPWDWPRP: the “shrunken log2 fold change” value is -0.0724.

RRIRNRPPRLPRPRPRPFINPRP: the “shrunken log2 fold change” value is -1.59.

RRIRERPPRLPRPRPRPWRNPRP: the “shrunken log2 fold change” value came to 0.0891.

With RRIRNRPPRLPRPRPRPYKSPRP, the “shrunken log2 fold change” value was -0.00822.

As for RRIRDRPPRLPRPRPRPSQSPRP, the “shrunken log2 fold change” value is -0.119.

With RRIRERPPRLPRPRPRPEEHPRP, the “shrunken log2 fold change” value was -0.0183.

Regarding RRIRNRPPRLPRPRPRPDPCPRP, the “shrunken log2 fold change” value is -0.145.

On to RRIRMRPPRLPRPRPRPHGGPRP, for which the “shrunken log2 fold change” value was -0.0492.

On to RRIRVRPPRLPRPRPRPNFNPRP, for which the “shrunken log2 fold change” value is -0.143.

Take RRIRARPPRLPRPRPRPQMDPRP: the “shrunken log2 fold change” value stood at 0.099.

For RRIRWRPPRLPRPRPRPTNGPRP, the “shrunken log2 fold change” value was -0.134.

RRIRDRPPRLPRPRPRPNQDPRP: the “shrunken log2 fold change” value was 0.000998.

In the case of RRIRQRPPRLPRPRPRPGNLPRP, the “shrunken log2 fold change” value was found to be 0.0588.

In the case of RRIRVRPPRLPRPRPRPPCCPRP, the “shrunken log2 fold change” value is 0.117.

For the sequence RRIRNRPPRLPRPRPRPIMRPRP, the “shrunken log2 fold change” value came out at 0.00621.

RRIRCRPPRLPRPRPRPHVQPRP: the “shrunken log2 fold change” value is -0.224.

Take RRIRVRPPRLPRPRPRPCCEPRP: the “shrunken log2 fold change” value is -0.0815.

On to RRIRSRPPRLPRPRPRPHNFPRP, for which the “shrunken log2 fold change” value is -0.49.

For the sequence RRIRFRPPRLPRPRPRPHYCPRP, the “shrunken log2 fold change” value was -0.197.

RRIRTRPPRLPRPRPRPRYNPRP: the “shrunken log2 fold change” value was -0.712.

Regarding RRIRGRPPRLPRPRPRPAQGPRP, the “shrunken log2 fold change” value came to 0.313.

As to RRIRQRPPRLPRPRPRPFQTPRP, the “shrunken log2 fold change” value is -0.01.

On to RRIRHRPPRLPRPRPRPYFRPRP, for which the “shrunken log2 fold change” value is -0.296.

Consider RRIRCRPPRLPRPRPRPSRSPRP, for which the “shrunken log2 fold change” value was -0.136.

For RRIRPRPPRLPRPRPRPFFQPRP, the “shrunken log2 fold change” value amounted to 0.0612.

On to RRIRDRPPRLPRPRPRPFETPRP, for which the “shrunken log2 fold change” value was -0.0134.

With RRIRRRPPRLPRPRPRPQLKPRP, the “shrunken log2 fold change” value amounted to 0.0988.

Turning to RRIRWRPPRLPRPRPRPSWPPRP, the “shrunken log2 fold change” value was 0.0582.

As for RRIRERPPRLPRPRPRPSHQPRP, the “shrunken log2 fold change” value was -0.19.

On to RRIRQRPPRLPRPRPRPCVWPRP, for which the “shrunken log2 fold change” value is 0.213.

As for RRIRVRPPRLPRPRPRPYWKPRP, the “shrunken log2 fold change” value is -0.074.

On to RRIRNRPPRLPRPRPRPLNQPRP, for which the “shrunken log2 fold change” value is -0.225.

Turning to RRIRCRPPRLPRPRPRPPFTPRP, the “shrunken log2 fold change” value is -0.15.

Consider RRIRSRPPRLPRPRPRPDWHPRP, for which the “shrunken log2 fold change” value is -0.195.

Consider RRIRVRPPRLPRPRPRPGALPRP, for which the “shrunken log2 fold change” value amounted to 0.0362.

In the case of RRIRDRPPRLPRPRPRPREGPRP, the “shrunken log2 fold change” value was determined as 1.01.

As to RRIRERPPRLPRPRPRPLAIPRP, the “shrunken log2 fold change” value is -0.56.

On to RRIRKRPPRLPRPRPRPSLGPRP, for which the “shrunken log2 fold change” value came out at 0.343.

Take RRIRWRPPRLPRPRPRPLTFPRP: the “shrunken log2 fold change” value is -0.501.

For the sequence RRIRFRPPRLPRPRPRPQQCPRP, the “shrunken log2 fold change” value was -0.181.

In the case of RRIRGRPPRLPRPRPRPNRLPRP, the “shrunken log2 fold change” value is 0.104.

Consider RRIRGRPPRLPRPRPRPRGAPRP, for which the “shrunken log2 fold change” value worked out at 1.66.
